Assay results published in PMC3817407.

B1: AS16_973 (protein)
chain: MKTDDLIALLAAGEGPVPRHAVGRRMAVAALGGLTAALLLTITLYGVRSDITEVAQTPLFWGKVAFPTSLALIGLWLTSRLARPGGKGAAGWKMLGLPLLLVWCGAAVSIAGAPVDARADLLFGRTWRTCALNIALLSVPAFVTVFWALKGLAPTRLRLAGAAGGLLAGSSATVAYCLHCPEMGVPFWGVWYVLGMLVPTVLGAWWGPRMLRW
B2: AS16_3622 (protein)
chain: MMKTDELISLLATAEGPVDRHALARRLGLALLAGLLGALLLTVALYGVRSDLAEVARTPLFWAKVALPTSLALLGLWLTQRLARPGVRGGALWGLLGVPLLLVWLGAAISLFGAPPEARADLIFGRTWRTCALNITLLSTPVFIAVFWALRGLAPTRLRQAGAAGGLLAGSTATLVYCLHCPEMGVPFWGLWYLLGMLVPTLLGAVLGPRLLRW
B3: AS02_915 (protein)
chain: MEKTGQEWVSASVDGETDRQTLAELAADTDSHAKWQRYHLMGDAMRDELPQAMPLDLSARIAAALEDEPTILAPKVEREATQAPSRAVVVPFMRQLGQYGIAAAVALMAVVGVQNYQSTQDDAPLPVLNTRPLVGTATPVSLQTGPVANQNQGNANDQLLEQRRRINAYLQDHMLQQRLNTGAVVDDNSEVTPIPVNR
B4: AS20_992 (protein)
chain: MTPERFVHLADAYGADLQRWPSAERAAAQALLDCGDAQAVAALRQAHWLDSQLDRYQVPAPSPALAQRIIAAAQQPGAPFWSRYAGWLASLGWVGVGLTGVAAGMLAVALSLPLSTSAEALPSVFDQSDAEFVLSINAEEAEQ
B5: AS22_1147 (protein)
chain: MELDDIAVAWRSLEQRLDQHAALAGQVLGDLRSHAARAHLRPLWLSQSAQLLCAIALSGLVAHSWLAFPEQAAAIVGGVLLQIWCVALAASAARQLWLLSQLDFARPLLQTQRALAQLRRWRTRVAPWLGVAFWVLWVAVADAAWRALTGRSLPYAWLLCNLLVGVLGGIGTWLGYRRLQRSGHPWLERLDTVHAGRSVARTETLLEQIARFQRE
B6: AS22_4450 (protein)
chain: MELDDMKHAWQTLEQRLDQQAAQTGQLLGVVHEETVRSSLRPLWVAQTAQLLCALALAIVSARSWIPHTDQPVAVIGGVLLQAWCMALAISAMVQLQLLTQFNVAGPLLRTQHALARLRRWRTRVAPWLGVAFWVLWIAVADALWRALTGQTLPTDWLVLNLLVGVAGGIGTWLGFRRLQRAQHPWLERIDRAHAGTGVIRAERMLEEIARFQRD
B7: AS25_1643_cl43 (protein)
chain: MTTDSNFNDPCRRQFSRDLPQKMARHTNEATGAMDMVKRDRFELLSAYLGGEVTAAERRQVEDWPANDVAVQRLYSRLLKLRQGIRTMPIPTAQQSPETTAEQVFAKVNRRSRLAWKLGGAAVAACVIGAVTNWLPGRQTGIPQLAQQPQEQPTQAVTTPDALPMIALNNPVIEIPKAAVASPTKFIQPQPQLGEIPPDIN
B8: AS25_1645 (protein)
chain: MNESFSQRQTDGDRRRGGDLEMKKNHTSHQHHTDSETPMGHNFEQFQRLSAYFDGEATPAERKEIQHLLDTDPQVKQQYQQLRQLKQALQLLPIPTSISAQYLGQRVLARLRRSQLRTLSLWGSGAIAALFVAGVMGQMPRLNFDRFAKNDPDQQPTAALVETSPQGEEALVVALNRPVLQIPKLATTESP
B9: AS27_1331 (protein)
chain: MSAADKDPDKHSADADPPLTVELLADLQAGLLDDATAARIRSRVRSDPQAQQILRALNRVRRDVAAMGADPAWGPAARPAVVDSISAALRSARPNSSPGAAHAARPHVHPVRMIAGAAGLCAVATAIGVGAVVDAPPPAPSAPTTAQHITVSKPAPVIPLSRPQVLDLLHHTPDYGPPGGPLGDPSRRTSCLSGLGYPASTPVLGAQPIDIDARPAVLLVIPADTPDKLAVFAVAPHCSAADTGLLASTVVPRA
B10: AS27_4265 (protein)
chain: MTGHPDVAEIADLAEGLLPTTRTTEVRQHLESCELCADVYASLTEIQGLLGTLPAPAPMPDDVAARIDAALAAEPPLGIADGTRVSRETSTPADRPAGHARPSSTGPGRKDRRRGGRRRIAVLGAVAAAAAIGIGSVVVSSLTEDSSSGNTAREQQTAIADTFSEGRLKDRVTNLVADGSAENGSRTPRSFGMESENGGETAENHVFKQPTVPECIRKGIGRDDAVIATEPGVYKGREALLVVLPDATNDTQVTAYIVETACVDQPAVGKAKILLEHSYARS
B11: AS30_35 (protein)
chain: MDKRLQQLREEYKNVQIPKELDIIVEKALQQEPKKKRIVMWPTSAAIAAAILFTALVNINPDAAQAMSKIPVIGKIVKAITFIEIKEEKDQSSIDVKTPALSGLSNKELENSINEKYLKESQQLYKEFIQSTSKNKKGHLSIYSDYETVTDTPDLLSIRRNIETTQASSYTQSRYITIDKKNDILLTLKSLFKDERYIKVISQNIKEQMKQQMKEDPNKIYWLTDEDAEPFKTILPDQTFYITEDHKLVISFDEYEVAPGYMGVTEFTIPTGVISNLLVGERYIR
B12: AS31_34 (protein)
chain: MNKEKLSDHLKSEWKKIDQTANPSIPNQKELLHQLSQMKAEYRKKLLQEIILFVFCALMVVSAAILAFTQAPAVFIVLQVCVLAVLPILIAAEKKRHLGECEVKRG
B13: AS33_375 (protein)
chain: MMALSKKMLEQEPSEIELLLPWHAAGTLNARDARRVEDALARDPELAKQYAAIRGEYEETIHLNESLGAPSARAMQKLFGAIDAEPARETGSLPLSARIATFFASLSPRTLAWSASLGAVALVLQAGIIGAVLMKTQPTTFQTASLSTSAPITRELGAAVAPARALVRFTPEARVADITALLDSYQASIIGDAKGGMFRLQFDKAMSQDELASLLGRMQREKFVNLAVAAP
B14: AS33_423 (protein)
chain: MMAMSNTMPDPREPGDVEALLPWYAAGTLNARDARRVADALDRDPALARQYAVILEEYASTIELNESLGAPSSRAMQKLFAAIDAEPARAPGAGQGLGARFAGFFAGLSPKALAWSASVAGLALLLQAGLIGALLTWPHAAPVQTAAYQPQREVARAPASSPAPATVSPPAAAMADRAADAGKSTPPMVMAERSGGPVVRSLAPQSGPRVLVKFAPEARASEIAALLDQYNAVVVDSSRGGLFRLQFGTQSLSKQDQETLIGRLQKEPVVSVVLSAP
B15: AS35_3582 (protein)
chain: MNPQKHSASVAEEQMLAHFRAHAPQQPAPALDQAILAAARRQAAHVEPARSWWRRWLEASRRPRWQAAFASLLGVALVLGLVSHNVLDDAERQARPEVAFSDVPLRDGVAGAAAAKRAMRAPAAPAPLSGEMSEPPALLASYASSGEAPQLMAEAAPPAPAALADRPPAQAAQQAKVQAALAGDFVAQARGKAVAVKPEVLDEALGAVLALREQGKTEQAATQLAELQKRFPGENLVERLERLATIAASARKRP

Biological target: T1, ECF15_524
T1 chain: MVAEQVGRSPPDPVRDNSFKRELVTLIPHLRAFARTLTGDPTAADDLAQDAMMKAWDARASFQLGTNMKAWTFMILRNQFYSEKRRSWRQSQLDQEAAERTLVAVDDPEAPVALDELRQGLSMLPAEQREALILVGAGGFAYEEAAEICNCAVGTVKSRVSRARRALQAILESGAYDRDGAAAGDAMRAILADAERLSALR

Going from B1 to B2, the fold repression rises from 0.668 to 3.36.

First: B3
Second: B4
The fold repression of the first is higher: 2.55 for the first, 1.58 for the second.

Compared with B5, B6 is lower in fold repression: 2.65 for the first, 1.53 for the second.

First: B7
Second: B8
The fold repression of the first is lower: 1.18 for the first, 6.73 for the second.

First: B9
Second: B10
The fold repression of the first is higher: 3.38 for the first, 2.74 for the second.

First: B11
Second: B12
The fold repression of the first is lower: 1.74 for the first, 2.19 for the second.

First: B13
Second: B14
The fold repression of the first is higher: 14.3 for the first, 9.15 for the second.

In the case of B15, the fold repression is reported as 5.37.

Biological target: T2, ECF38_1322
T2 chain: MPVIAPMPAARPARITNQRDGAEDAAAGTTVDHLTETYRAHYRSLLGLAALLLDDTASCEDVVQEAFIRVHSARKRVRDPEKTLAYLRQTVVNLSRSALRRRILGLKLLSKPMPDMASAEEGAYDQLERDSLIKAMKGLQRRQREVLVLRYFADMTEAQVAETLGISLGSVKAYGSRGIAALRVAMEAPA

Going from B1 to B2, the fold repression rises from 0.629 to 2.34.

Compared with B3, B4 is lower in fold repression: 2.24 for the first, 1.72 for the second.

Going from B5 to B6, the fold repression falls from 1.99 to 1.78.

Going from B7 to B8, the fold repression rises from 0.931 to 3.98.

First: B9
Second: B10
The fold repression of the first is higher: 3.98 for the first, 1.36 for the second.

Going from B11 to B12, the fold repression rises from 1.84 to 2.06.

Compared with B13, B14 is lower in fold repression: 7.66 for the first, 5.66 for the second.

Work on B15 yielded a fold repression of 3.42.

Biological target: T3, ECF22_4450
T3 chain: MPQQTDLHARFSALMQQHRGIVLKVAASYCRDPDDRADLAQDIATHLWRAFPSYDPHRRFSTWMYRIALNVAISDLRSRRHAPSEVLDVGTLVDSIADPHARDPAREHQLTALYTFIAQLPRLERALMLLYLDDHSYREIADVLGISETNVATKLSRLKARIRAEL

First: B1
Second: B2
The fold repression of the first is lower: 2.62 for the first, 4.51 for the second.

Compared with B3, B4 is lower in fold repression: 4.13 for the first, 2.29 for the second.

Going from B5 to B6, the fold repression falls from 35.7 to 12.7.

Going from B7 to B8, the fold repression rises from 3.35 to 9.86.

Going from B9 to B10, the fold repression falls from 5.86 to 4.03.

First: B11
Second: B12
The fold repression of the first is lower: 2.21 for the first, 3.59 for the second.

First: B13
Second: B14
The fold repression of the first is higher: 31 for the first, 23.1 for the second.

Binder B15 has a fold repression of 8.03.

Biological target: T4, ECF33_375
T4 chain: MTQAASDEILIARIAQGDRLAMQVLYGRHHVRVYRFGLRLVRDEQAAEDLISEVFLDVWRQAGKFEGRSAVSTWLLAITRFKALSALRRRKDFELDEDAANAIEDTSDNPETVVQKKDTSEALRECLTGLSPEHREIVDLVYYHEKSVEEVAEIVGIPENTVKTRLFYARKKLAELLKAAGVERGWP

First: B1
Second: B2
The fold repression of the first is lower: 0.373 for the first, 1.17 for the second.

Compared with B3, B4 is lower in fold repression: 2.44 for the first, 1.04 for the second.

First: B5
Second: B6
The fold repression of the first is lower: 1.26 for the first, 1.4 for the second.

Compared with B7, B8 is higher in fold repression: 0.709 for the first, 3.29 for the second.

Going from B9 to B10, the fold repression falls from 4.75 to 1.07.

First: B11
Second: B12
The fold repression of the first is lower: 1.3 for the first, 2.06 for the second.

Compared with B13, B14 is lower in fold repression: 152 for the first, 114 for the second.

For B15, the fold repression was 2.9.

Biological target: T5, ECF14_3200
T5 chain: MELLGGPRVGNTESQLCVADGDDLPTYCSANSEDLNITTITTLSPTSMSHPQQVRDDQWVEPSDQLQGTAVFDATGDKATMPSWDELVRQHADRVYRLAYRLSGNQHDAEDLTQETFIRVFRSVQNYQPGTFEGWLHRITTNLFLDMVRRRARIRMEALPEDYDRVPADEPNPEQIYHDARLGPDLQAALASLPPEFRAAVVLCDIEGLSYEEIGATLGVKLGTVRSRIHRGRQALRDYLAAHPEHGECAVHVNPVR

Going from B1 to B2, the fold repression rises from 0.918 to 8.73.

Going from B3 to B4, the fold repression falls from 6.23 to 2.04.

Compared with B5, B6 is lower in fold repression: 5.04 for the first, 1.94 for the second.

Going from B7 to B8, the fold repression rises from 5.41 to 14.2.

Compared with B9, B10 is higher in fold repression: 2.68 for the first, 4.49 for the second.

First: B11
Second: B12
The fold repression of the first is lower: 1.91 for the first, 2.7 for the second.

Going from B13 to B14, the fold repression falls from 17.8 to 12.2.

B15 showed a fold repression of 11.7.
